Reference: the RNAGym collection of RNA variant scans (doi:10.1073/pnas.2313332121)

B1: TPR t1 (parent)
chain: GACCAAUCUGCCCUCAGAGCUCGAGAACAUCUUCGGAUGCAGAGGAGGCAGGCUUCGGUGGCGCGAUAGCGCCAACGUCCUCAACCUCCAAUGCAUCCCACCACAUGAUGAUGCCUGAAGAGCCUUGGUUUUUUG

Variants of: B1
Assay: polymerase ribozyme fitness, log enrichment relative to wild type (log ratio); higher = more active; in vitro selection for triplet polymerase activity
Method in brief: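 To select mutant libraries of each subunit of a heterodimeric triplet polymerase ribozyme, built by PCR and transcribed, each was annealed with a biotinylated primer, partner subunit and triplets, then incubated frozen at −7 °C. Extended constructs were gel-excised, captured on streptavidin beads and amplified by RT-PCR, in one round carried out in triplicate. Illumina sequencing of input and output libraries kept genotypes with ≥10 input reads and ≥1 read per output. Fitness is the base-2 logarithm of genotype enrichment relative to wild-type enrichment, from inverse-variance-weighted replicate averages.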
For GACCAAUCUGCCCUCAGAGCUCGAGAACAUCUUCGAAUGCAAAGGAGGCAGGCUUCGGUGGCGCGAUAGCGCCGACGUCCUCAACCUCCAAUGCAUCCCACCACAUGAUGAUGCCUGAAGAGCCUUCGUUUUUUG, the “polymerase ribozyme fitness (log ratio)” value was -3.95. With GACCAAUCUGCCCUCAGAGCUCGAGAACAUCUUCGAAUGCAGAGGAGGCAGGCUUCGGUGGCGCGAUAGCGGCAACGUCCUCAACCUCCAAUGCAUCCCACCACAUGAUGAUGCCUAAAGAGCCUUGGUUUUUUG the “polymerase ribozyme fitness (log ratio)” value was -3.71. In the case of GACCAAUCUGCCCUCAGAGCUCGAGAACAUCUUCGAAUGCAGAGUAGGCAGGCUUCGGAGGCGCGAUAGCGGCAACGUCCUCAACCUCCAAUGCAUGUCACAACAUGAUGGUGCCUGAAGAGCCUUGGUUUUUUG, the “polymerase ribozyme fitness (log ratio)” value is reported as -6.75. In the case of GACCAAUCUGCCCUCAGAGCUCGAGAACAUCUUCGAAUGCAGAGGAGGCAGGCUUCGGUGGCGCGAUAGCGCCAACGUCCUCAACCUCCAAUGCAUCCCACCACAUAAUGAUGCCUGAAGAGCAUUGGUUUUUUG, the “polymerase ribozyme fitness (log ratio)” value is reported as -7.46. In the case of GACCAAUCUGCCCUCAGAGCUCGAGAACAUCUUCGAAUGCAGAGGAGGCAGGCUUCGGUGGCGCGAUAGCGCCAACGUCCUCAACCUCCAAUGCAUCCCACCACAUGAUGAUGCCUGAAGAGCCUUUGUUUUGUG, the “polymerase ribozyme fitness (log ratio)” value is reported as -3.26. In the case of GACCAAUCUGCCCUCAGAGCUCGAGAACAUCUUCGAAUGCAGAGGAGGCAGGCUUCGGUGUCGCGAUAGCGGCAACAUCCUAAACCUCCAAUGCAUCUCACCACAUGAUGAUGCCUGAAGAGCCUUGGUUUUUUG, the “polymerase ribozyme fitness (log ratio)” value is reported as -6. For GACCAAUCUGCCCUCAGAGCUCGAGAACAUCUUCGAAUGCAGAGGAGGCAGGCUUCGGUGGCGUGAUAGCGCCAACGUCCUCAACCUUCAAUGCAUCCCAGCACAUGAUGAUGCCUGAAGAGCCUUGGUUUUUUG, the “polymerase ribozyme fitness (log ratio)” value was -1.84. For GACCAAUCUGCCCUCAGAGCUCGAGAACAUCUUCGAAUGCAGAGGAGGCAGGCUUCGGUGGCGCGAUAGCGCCAACGUCCUCAACCUCCAAUGCAUCCCACCACAUGAUGAUUCCUGAUGAGCCUUGGUUUUUUG, the “polymerase ribozyme fitness (log ratio)” value was -4.19. For GACCAAUCUGCCCUCAGAGCUCGAGAACAUCUUCGAAUGAAGAGGAGGCAGGCUUUGGUGGCGCGAUAGCGCCAACGUCCUCAACCUCCAAUGCAUCCCACCACAUGAUAAUGCCAGAAGAGCAGUGGUUUUUUG, the “polymerase ribozyme fitness (log ratio)” value was -7.28. In the case of GACCAAUCUGCCCUCAGAGCUCGAGAACAUCUUCGAAUGCAGAGGAGGCAGGCUUCGGUGUCGCGAUAGCGCCAACGUCCUCAACCUCCAAUGCAGCCCACCACAUGAUGAUGCCUGAAGAGCCUUGGUUUUUUG, the “polymerase ribozyme fitness (log ratio)” value is reported as -1.71. For GACCAAUCUGCCCUCAGAGCUCGAGAACAUCUUCGAAUGCAGAGGAGACAGGCUUCGGUGGCGCGAUAGCGCCAACGUCCUCAACCUCCAAUGCAUCCCACCACAUGAUGAAGCCUGAAGAGCCUUGGUUCUUUG, the “polymerase ribozyme fitness (log ratio)” value was 0.386. For GACCAAUCUGCCCUCAGAGCUCGAGAACAUCUUCGAAUGCAGAGGAGGCAGGCUUCGGUGGCGCGAUAGCGCCAACGUCCACAACCUCCAAUGCAUCCCACCACAUGAUGAUGCCUGAAGAGCCUUGGUUUUUUG, the “polymerase ribozyme fitness (log ratio)” value was -1.3. In the case of GACCAAUCUGCCCUCAGAGCUCGAGAACAUCUUCGAAUGCAGAGGAGGCAGGCUUCGGUGGCGCGAUAGCGCCAACGUCCUCAACCUCCAAUGCAGCCCACCACAUGAUGAUGCCUGAAGAGCCUUGGUUUUUUG, the “polymerase ribozyme fitness (log ratio)” value is reported as -1.67. With GACCAAUCUGCCCUCAGAGCUCGAGAACAUCUUCGAAUGCAGAGGAGGAAGGCUUUGGUGGCGCGAUAGCGCCAACGUCCUCAACCUCCAAUGCAUCCCACCACAUGAUGAUGCCUGAAGAGCCUUGGUUUUUUG the “polymerase ribozyme fitness (log ratio)” value was -0.697. With GACCAAUCUGCCCUCAGAGCUCGAGAACAUCUUCGAAUGCAGAGGAGGCAGGCUUCGGUGGCGCGAUAGCGCCAACGUCCUCAACGUCCAAUGCAUCCCACCACAUGAUGAUGCCUGAAGAGCCUUGGUUUUUUG the “polymerase ribozyme fitness (log ratio)” value was -2.04. For GACCAAUCUGCCCUCAGAGCUCGAGAACAUCUUCGAAUGCAGAGGAGGCAGACUUCGGUGGCUCGAUAGCGCCAACGUCCUCAACCUCCAAUGCAUCCCACCACAUGAUGAUGCCUGAAGAGCCUUGGUUUUUUG, the “polymerase ribozyme fitness (log ratio)” value was -3.22. In the case of GACCAAUCUGCCCUCAGAGCUCGAGAACAUCUUCGAAUGCAGAGGAGGUAGGCUUCGGUGGCGUGAUAGCGCCAACGUCCUCAACGUCCAACGCAUCCCACCACAUGAUGAUGCCUGAAGAGCCUUGGUUUUUUG, the “polymerase ribozyme fitness (log ratio)” value is reported as -6.86. With GACCAAUCUGCCCUCAGAGCUCGAGAACAUCUUCGAAUGCAGAGGAGGCAGGCUUCGGUGGCGCGAUAGCGCCAACGUCCUCAAACUCCAAUGCAUCCCACCACAUGAUGAUGCCUAAAGAGCCUUGGUUUUUUG the “polymerase ribozyme fitness (log ratio)” value was -3.37. In the case of GACCAAUCUGCCCUCAGAGCUCGAGAACAUCUUCGCCUGCGGAGGAGGCAGGCUUCGGUGUCGCGAUAGCGCCAACGUCCUCAACCUCCAAUGCAUCCCACCACAUGAUGAUGCCUGAAGAGCCUUGGUUUUUUG, the “polymerase ribozyme fitness (log ratio)” value is reported as -4.4. With GACCAAUCUGCCCUCAGAGCUCGAGAACAUCUUCGAAUGCAUAGGAGGCAGGCUUCGGUGGCGCGAUAGCGCCAACGUCCUCAACCUCCAAUGCAUCCCACCACAUGAUGAUGCCUGAAGAGCCUUGGUUUUUUG the “polymerase ribozyme fitness (log ratio)” value was -2.99. With GACCAAUCUGCCCUCAGAGCUCGAGAACAUCUUCGAAUGCAGAGGAGGCAGGCUUUGGUGGCGCGAUAGCGCCAACGUCCUCAACCUCCAAUGCAUCCCACCACAUGAUGAUGCCUGAAGAGCCUUGGUUUUUUG the “polymerase ribozyme fitness (log ratio)” value was -0.261. In the case of GACCAAUCUGCCCUCAGAGCUCGAGAACAUCUUCGAAUGCAGAGGAGGCAGGCUUCGGUGGCGCGAUAGCGCCAACGUCCUCAACCUCCAAUGCAUCCCACCACAUGAUGAUGACUGAAGAGCCUUGGUUUUUUG, the “polymerase ribozyme fitness (log ratio)” value is reported as -2.96. For GACCAAUCUGCCCUCAGAGCUCGAGAACAUCUUCGAAUGCAGAGGAGGCAGGCUUCGGUGGCGCGAUAGCGUCAACGUCCUCAACCUCCAAUGCAUCCCACCACAUGAUGAUGCCUGAAGAGCCUUGGUUUUUUG, the “polymerase ribozyme fitness (log ratio)” value was -1.29. With GACCAAUCUGCCCUCAGAGCUCGAGAACAUCUUCGAAUGCAGAGGAGGCAGGCUUCGGUGGCGCGAUAGCGCCAACGUCCUCAACCUCCAAUGCAUCCCACCACAAGAUGAUGCCUGAAGAGCAUUGGGUUUUUG the “polymerase ribozyme fitness (log ratio)” value was 0.262. In the case of GACCAAUCUGCCCUCAGAGCUCGAGAACAUCUUCGAAUGCAGAGGAGGCAGGCUUCGGCGGCGCGAUAGCGCCAACGUCCUCAACCUCCAAUGCAUCCCACCACAUGAUGAUGCCUGAAGAGCCUGGGUUUUUUG, the “polymerase ribozyme fitness (log ratio)” value is reported as -2.55. With GACCAAUCUGCCCUCAGAGCUCGAGAACAUCUUCGAAUGCAGAGGAGGCAGGCUUCGGUGGCACGAUAGCGCCAACGUCCUCAACCUCCAAUGUAUCCCACCACAUGAUGAUGCCUGAAGAGCCUUGGUUUAUUG the “polymerase ribozyme fitness (log ratio)” value was -1.7. In the case of GACCAAUCUGCCCUCAGAGCUCGAGAACAUCUUCGCUUGCAGAGGAGCCAGGCUUCGGUGGCGCGAUAGCGCCAACGUCCUCAACCUCCAUUGCAUCCCACCACAUGAUGAUGCUUGAAGAGCCUUGGUUUUUUG, the “polymerase ribozyme fitness (log ratio)” value is reported as -4.92. With GACCAAUCUGCCCUCAGAGCUCGAGAACAUCUUCGAAUGCAGAGGAGGCAGGCUGCGGUGGCGCGAUAGCGCCAACGUCCUCAACCUCCAAUGCAUCCCACCACAUGAUGAUGCAUGAAGAGCCUUGGUUUUUUG the “polymerase ribozyme fitness (log ratio)” value was -1.03. With GACCAAUCUGCCCUCAGAGCUCGAGAACAUCUUCGAAUGCAGAGGAGGCAGGCUGCGGUGGCGCGAUAGCGCCAACGUCCUCAACCUCCAAUGCAUCCCACCACAUGAUGAUGCCUGAACAGCCUUGGUUUUUUG the “polymerase ribozyme fitness (log ratio)” value was 0.249. With GACCAAUCUGCCCUCAGAGCUCGAGAACAUCUUCGAAUGCAGAGGAAGCAGGCUUCGGUGUCGCGAUAGCGCCAACGUCCUCAACCUCCAAUGCAUCCCACCACAUGAUGAUGCCUGAAGAGCCUUGGUUUUUUG the “polymerase ribozyme fitness (log ratio)” value was -1.37. For GACCAAUCUGCCCUCAGAGCUCGAGAACAUCUUCGAAUGCAGAGGAGGCAGGCUUCGCUGGCGCGAUAGCGCCAACGUCCUCAACCUCCAAUGCAUCCCACCACAUGAUGAUGCCGGAAGAGCCUUGGUUUUUUG, the “polymerase ribozyme fitness (log ratio)” value was -3.49. With GACCAAUCUGCCCUCAGAGCUCGAGAACAUCUUCGAAUGCAGAGCAGGCAGGCUUCGGUGGCGCGAUAGCGCCAACGUCCUCGACCUCCAAUGCAUCCCAGCACAUGAUGAUGCCUGAAGAGCCUUGGUUUUUUG the “polymerase ribozyme fitness (log ratio)” value was -2.84. In the case of GACCAAUCUGCCCUCAGAGCUCGAGAACAUCUUCGAAUGCAGAAGAGGCAGGCUUCGGUGUCGCGAUAGCGCCAACUUCCUCAUCCUCCAAUGCAUCCCACCACAUGAUGAUGCCUGAAGAGCCUUGGUUUUUUG, the “polymerase ribozyme fitness (log ratio)” value is reported as -3.54. With GACCAAUCUGCCCUCAGAGCUCGAGAACAUCUUCGAAUGCAGAGGAGGCAGACUUCGGUGGCGCGGUAGCGCCAACGUCCUCAACCUCCAAUGCAUCCCACCACAUGAUGAUGCCUGAAGAGCCUUGGUUUUUUG the “polymerase ribozyme fitness (log ratio)” value was -2.6. In the case of GACCAAUCUGCCCUCAGAGCUCGAGAACAUCUUCGAAUGCAGAGGAGGCAGGCUUCGGUGGCGCGAUAGCGCCAACGUCCUCAACCUCCAAUGCAUCCCACCACAUGAUGAUGCCUGAAGAGCCUUCGUUUUUUG, the “polymerase ribozyme fitness (log ratio)” value is reported as -1.81. With GACCAAUCUGCCCUCAGAGCUCGAGAACAUCUUCGAAUGCACAGGAGGCAGGCUUCGGUGGCGCGAUAGCGCCAACGUCCUCAUCCUCCAAUGCAUCCCACCACAAGAUCAUGCCUGAAGAGUCUUGAUUUUUUG the “polymerase ribozyme fitness (log ratio)” value was -7.57. With GACCAAUCUGCCCUCAGAGCUCGAGAACAUCUUCGAAUGCAGAGGAGGCAGGCUUCGGUGCCGCGAUAGCGCCAACGUCCUCAACCUCCAAUGCAUCCCACCACAUGAUGAUGCCUGAAGAGCCUUGGUUUUUUG the “polymerase ribozyme fitness (log ratio)” value was -2.63. In the case of GACCAAUCUGCCCUCAGAGCUCGAGAACAUCUUCGCGUGCAGAGGAGGCAGGCUUCGGUGGCGCGAUAGCGCCAACGUACUCAACCUCCAAUGCAUCCCACCACAUGAUGAUGCCUGAAGAGCCUUGGUUUUUUG, the “polymerase ribozyme fitness (log ratio)” value is reported as -2.53. For GACCAAUCUGCCCUCAGAGCUCGAGAACAUCUUCGAAUGCAGAGGAGGCAGGCUUCGGUGGCGCGAUAGCUCCAACGUCCUCAACCUCCAAUGCAUCCCACCACAUGAUGAUGCCUGAAGAGCCUUGGUUUUUUG, the “polymerase ribozyme fitness (log ratio)” value was -0.815. With GACCAAUCUGCCCUCAGAGCUCGAGAACAUCUUCGAAUGCAGAGGAGGCAGGCUUCGGUGGCGCGAUAGCGGCAACGUCCUCAACCUCCAAUGCAUCCCACCACAUGAUUAUGCCUGAAGAGCCUUGGUUUUUUG the “polymerase ribozyme fitness (log ratio)” value was -4.37. For GACCAAUCUGCCCUCAGAGCUCGAGAACAUCUUCGAAUGCAGAGGAGGCAGGCUUCGGUGGCGCGAUAGCGCCAACGUCCUCAACCUCAAAUGCAUCCCACCACAUGAUGAUGCCUGAAGAGCCUUGGUUUUUUG, the “polymerase ribozyme fitness (log ratio)” value was -2.49. In the case of GACCAAUCUGCCCUCAGAGCUCGAGAACAUCUUCGAAUGCAGAGGAGGAAGGCUUGGGUGGCGCGAUAGCGCCAACGUCAUCAACCUCCGAUGCAUCCCACCACAUGAUGAUGCCUGAAGAGCCUUGGUUUUUUG, the “polymerase ribozyme fitness (log ratio)” value is reported as -4.92.
